The values below come from patent publication US20260242735A1 (UNIVERSIT T BASEL, published 2026).

The target in one assay is human CD33 T331A (human, UniProt P20138 18-364). The assay is described as follows: flow cytometry, HEK293-T, alanine scan.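 Also: transiently transfected HEK293-T cells expressing single alanine mutants of human CD33 (alanine residues changed to serine), antibody binding fluorescence minus background, relative to wild type CD33, mean of duplicates.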 On the technique in general: In flow cytometry, cells or beads pass a laser one at a time.
Another assay addresses human CD33 T284A (human, UniProt P20138 18-364). The assay is described as follows: flow cytometry, HEK293-T, alanine scan.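 Also: transiently transfected HEK293-T cells expressing single alanine mutants of human CD33 (alanine residues changed to serine), antibody binding fluorescence minus background, relative to wild type CD33, mean of duplicates.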
The target in another assay is human CD33 F279A (human, UniProt P20138 18-364). As to the kind of experiment: flow cytometry, HEK293-T, alanine scan.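 Also: transiently transfected HEK293-T cells expressing single alanine mutants of human CD33 (alanine residues changed to serine), antibody binding fluorescence minus background, relative to wild type CD33, mean of duplicates.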
For a further assay, the target named is human CD33 A293S (human, UniProt P20138 18-364). The assay is described as follows: flow cytometry, HEK293-T, alanine scan.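 Also: transiently transfected HEK293-T cells expressing single alanine mutants of human CD33 (alanine residues changed to serine), antibody binding fluorescence minus background, relative to wild type CD33, mean of duplicates.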
Another assay addresses human CD33 T302A (human, UniProt P20138 18-364). The assay is described as follows: flow cytometry, HEK293-T, alanine scan.
A further assay has as its target human CD33 D298A (human, UniProt P20138 18-364). The assay is described as follows: flow cytometry, HEK293-T, alanine scan.
The next assay concerns the target human CD33 E321A (human, UniProt P20138 18-364). The assay is described as follows: flow cytometry, HEK293-T, alanine scan.
The next assay addresses human CD33 V282A (human, UniProt P20138 18-364). As to the kind of experiment: flow cytometry, HEK293-T, alanine scan.
In a further assay the target is human CD33 M334A (human, UniProt P20138 18-364). The assay is described as follows: flow cytometry, HEK293-T, alanine scan.
The target of another assay is human CD33 K288A (human, UniProt P20138 18-364). As to the kind of experiment: flow cytometry, HEK293-T, alanine scan.
Another assay addresses human CD33 A329S (human, UniProt P20138 18-364). The assay is described as follows: flow cytometry, HEK293-T, alanine scan.
Another assay deals with human CD33 H285A (human, UniProt P20138 18-364). The assay is described as follows: flow cytometry, HEK293-T, alanine scan.
In the next assay the target is human CD33 T299A (human, UniProt P20138 18-364). As to the kind of experiment: flow cytometry, HEK293-T, alanine scan.
The target in the next assay is human CD33 H339A (human, UniProt P20138 18-364). The assay is described as follows: flow cytometry, HEK293-T, alanine scan.
The target of a further assay is human CD33 A328S (human, UniProt P20138 18-364). The assay is described as follows: flow cytometry, HEK293-T, alanine scan.
In the next assay the target is human CD33 T322A (human, UniProt P20138 18-364). As to the kind of experiment: flow cytometry, HEK293-T, alanine scan.
Another assay addresses human CD33 W22R (human, UniProt P20138 18-364). The assay is described as follows: flow cytometry, HEK293-T, IgG.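 Also: CD33 point mutants transiently expressed, antibody binding measured by fluorescence in duplicate, background subtracted and scaled to binding on wild-type CD33 as 100%.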
The target of the next assay is human CD33 N20E (human, UniProt P20138 18-364). As to the kind of experiment: flow cytometry, HEK293-T, IgG.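 Also: CD33 point mutants transiently expressed, antibody binding measured by fluorescence in duplicate, background subtracted and scaled to binding on wild-type CD33 as 100%.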
In a further assay the target is human CD33 P19D (human, UniProt P20138 18-364). As to the kind of experiment: flow cytometry, HEK293-T, IgG.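 Also: CD33 point mutants transiently expressed, antibody binding measured by fluorescence in duplicate, background subtracted and scaled to binding on wild-type CD33 as 100%.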
A further assay deals with human CD33 W22T (human, UniProt P20138 18-364). As to the kind of experiment: flow cytometry, HEK293-T, IgG.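 Also: CD33 point mutants transiently expressed, antibody binding measured by fluorescence in duplicate, background subtracted and scaled to binding on wild-type CD33 as 100%.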
A further assay concerns the target human CD33 D18R (human, UniProt P20138 19-364). The assay is described as follows: flow cytometry, HEK293-T, IgG.
A further assay addresses human CD33 N20K (human, UniProt P20138 18-364). The assay is described as follows: flow cytometry, HEK293-T, IgG.
The target in the next assay is human CD33 W22E (human, UniProt P20138 18-364). The assay is described as follows: flow cytometry, HEK293-T, IgG.
A further assay deals with human CD33 N20V (human, UniProt P20138 18-364). As to the kind of experiment: flow cytometry, HEK293-T, IgG.
For a further assay, the target named is human CD33 N20Y (human, UniProt P20138 18-364). As to the kind of experiment: flow cytometry, HEK293-T, IgG.
In a further assay the target is human CD33 D18N (human, UniProt P20138 19-364). The assay is described as follows: flow cytometry, HEK293-T, IgG.
The target in the next assay is human CD33 N20W (human, UniProt P20138 18-364). As to the kind of experiment: flow cytometry, HEK293-T, IgG.
For a further assay, the target named is human CD33 Q24N (human, UniProt P20138 18-364). The assay is described as follows: flow cytometry, HEK293-T, IgG.
In the next assay the target is human CD33 P19L (human, UniProt P20138 18-364). The assay is described as follows: flow cytometry, HEK293-T, IgG.
In the next assay the target is human CD33 N20T (human, UniProt P20138 18-364). As to the kind of experiment: flow cytometry, HEK293-T, IgG.
Another assay has as its target human CD33 P19W (human, UniProt P20138 18-364). As to the kind of experiment: flow cytometry, HEK293-T, IgG.
A further assay concerns the target human CD33 Q24T (human, UniProt P20138 18-364). As to the kind of experiment: flow cytometry, HEK293-T, IgG.
Another assay has as its target human CD33 W22Q (human, UniProt P20138 18-364). The assay is described as follows: flow cytometry, HEK293-T, IgG.
The target of the next assay is human CD33 W22L (human, UniProt P20138 18-364). The assay is described as follows: flow cytometry, HEK293-T, IgG.
The target of a further assay is human CD33 W22Y (human, UniProt P20138 18-364). The assay is described as follows: flow cytometry, HEK293-T, IgG.
Assay [1] concerns the target human CD33 extracellular region F21L (human, UniProt P20138 22-259). The assay is described as follows: BLI Octet, IgG captured on AHC, CD33 analyte.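 Also: CD33 variants and wild type run as analyte at 5, 50 and 500 nM, 700 s association then 1200 s dissociation, buffer-only reference subtracted, global 1:1 fit.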 On the technique in general: BLI is a label-free optical method that tracks binding on a fibre tip over time.

Chain of human CD33 T331A (P20138 18-364 T331A limits assumed): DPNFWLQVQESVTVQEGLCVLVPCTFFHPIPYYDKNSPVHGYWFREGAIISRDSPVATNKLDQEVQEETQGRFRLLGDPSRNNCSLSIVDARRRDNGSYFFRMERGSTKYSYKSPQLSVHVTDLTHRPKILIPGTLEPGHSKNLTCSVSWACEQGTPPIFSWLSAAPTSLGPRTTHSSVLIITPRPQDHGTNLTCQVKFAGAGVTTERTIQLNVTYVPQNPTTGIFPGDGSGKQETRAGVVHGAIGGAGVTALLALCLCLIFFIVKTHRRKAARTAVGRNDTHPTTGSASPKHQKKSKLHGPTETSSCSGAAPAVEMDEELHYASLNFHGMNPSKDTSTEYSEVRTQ
Chain of human CD33 K288A (P20138 18-364 K288A limits assumed): as the sequence (P20138 18-364 T331A limits assumed) above, with K271A, A314T counted along it
Chain of human CD33 H285A (P20138 18-364 H285A limits assumed): as the sequence (P20138 18-364 T331A limits assumed) above, with H268A, A314T counted along it
Chain of human CD33 D298A (P20138 18-364 D298A limits assumed): as the sequence (P20138 18-364 T331A limits assumed) above, with D281A, A314T counted along it
Chain of human CD33 W22Y (P20138 18-364 W22Y limits assumed): as the sequence (P20138 18-364 T331A limits assumed) above, with W5Y, A314T counted along it
Chain of human CD33 W22Q (P20138 18-364 W22Q limits assumed): as the sequence (P20138 18-364 T331A limits assumed) above, with W5Q, A314T counted along it
Chain of human CD33 P19L (P20138 18-364 P19L limits assumed): as the sequence (P20138 18-364 T331A limits assumed) above, with P2L, A314T counted along it
Chain of human CD33 A293S (P20138 18-364 A293S limits assumed): as the sequence (P20138 18-364 T331A limits assumed) above, with A276S, A314T counted along it
Chain of human CD33 N20K (P20138 18-364 N20K limits assumed): as the sequence (P20138 18-364 T331A limits assumed) above, with N3K, A314T counted along it
Chain of human CD33 W22R (P20138 18-364 W22R limits assumed): as the sequence (P20138 18-364 T331A limits assumed) above, with W5R, A314T counted along it
Chain of human CD33 V282A (P20138 18-364 V282A limits assumed): as the sequence (P20138 18-364 T331A limits assumed) above, with V265A, A314T counted along it
Chain of human CD33 A328S (P20138 18-364 A328S limits assumed): as the sequence (P20138 18-364 T331A limits assumed) above, with A311S, A314T counted along it
Chain of human CD33 D18N (P20138 18-364 D18N limits assumed): as the sequence (P20138 18-364 T331A limits assumed) above, with D1N, A314T counted along it
Chain of human CD33 W22T (P20138 18-364 W22T limits assumed): as the sequence (P20138 18-364 T331A limits assumed) above, with W5T, A314T counted along it
Experimental for human CD33 A293S: (§1) An alanine scan on human CD33 was performed to the determine the residues on CD33 that are involved in binding to the antibodies investigated. […] Briefly, a mutation library of CD33 was created by high-throughput, site-directed mutagenesis. Each residue was individually mutated to alanine, with alanine codons mutated to serine. The mutant library was arrayed in 384-well microplates and transiently transfected into HEK293-T. Following transfection, cells were incubated with the indicated antibodies (IgG or Fab) at concentrations pre-determined using an independent immunofluorescence titration curve on wild type CD33. […] Binding of each antibody to each mutant clone was determined in duplicates. For each point, background fluorescence was subtracted from the raw data, which were then normalized to antibody reactivity with wild type CD33.
(§2) Critical residues for antibody binding (outlined in dark grey) were residues whose mutations led to a binding of the test Abs of less than 20%. Additional secondary residues (outlined in light grey) were identified that led to a binding of the test Abs of between 20 and 40% as compared to the wild type CD33.
Experimental for human CD33 A328S: as §1, §2
Experimental for human CD33 A329S: as §1, §2
Experimental for human CD33 D18N: as §1
(§3) Antibodies were screened for binding to the human CD33 variants in IgG format. […] For each mutation, background fluorescence was subtracted from the raw data, which were then normalized to antibody reactivity with wild-type CD33.
Experimental for human CD33 D18R: as §1, §3
Experimental for human CD33 D298A: as §1, §2
Experimental for human CD33 E321A: as §1, §2
Experimental for human CD33 F279A: as §1, §2
Experimental for human CD33 H285A: as §1, §2
Experimental for human CD33 H339A: as §1, §2
Experimental for human CD33 K288A: as §1, §2
Experimental for human CD33 M334A: as §1, §2
Experimental for human CD33 N20E: as §1, §3
Experimental for human CD33 N20K: as §1, §3
Experimental for human CD33 N20T: as §1, §3
Experimental for human CD33 N20V: as §1, §3
Experimental for human CD33 N20W: as §1, §3
Experimental for human CD33 N20Y: as §1, §3
Experimental for human CD33 P19D: as §1, §3
Experimental for human CD33 P19L: as §1, §3
Experimental for human CD33 P19W: as §1, §3
Experimental for human CD33 Q24N: as §1, §3
Experimental for human CD33 Q24T: as §1, §3
Experimental for human CD33 T284A: as §1, §2
Experimental for human CD33 T299A: as §1, §2
Experimental for human CD33 T302A: as §1, §2
Experimental for human CD33 T322A: as §1, §2
Experimental for human CD33 T331A: as §1, §2
Experimental for human CD33 V282A: as §1, §2
Experimental for human CD33 W22E: as §1, §3
Experimental for human CD33 W22L: as §1, §3
Experimental for human CD33 W22Q: as §1, §3
Experimental for human CD33 W22R: as §1, §3
Experimental for human CD33 W22T: as §1, §3
Experimental for human CD33 W22Y: as §1, §3

B1: Refmab #6 (antibody, V domains shown)
VH: QVQLQQPGAEVVKPGASVKMSCKASGYTFTSYYIHWIKQTPGQGLEWVGVIYPGNDDISYNQKFQGKATLTADKSSTTAYMQLSSLTSEDSAVYYCAREVRLRYFDVWGQGTTVTVSS
VL: EIVLTQSPGSLAVSPGERVTMSCKSSQSVFFSSSQKNYLAWYQQIPGQSPRLLIYWASTRESGVPDRFTGSGSGTDFTLTISSVQPEDLAIYYCHQYLSSRTFGQGTKLEIK
notes: The alanine scan used IgG or Fab
For the molecule B1, the “Mean % WT Binding” value with human CD33 T331A was 90.9 % WT binding; with human CD33 T284A it was 105 % WT binding; in the assay with human CD33 F279A, 102 % WT binding; in the assay with human CD33 A293S, 101 % WT binding; with human CD33 T302A, 101 % WT binding; with human CD33 D298A, 106 % WT binding. For the same molecule, the “Mean % WT Binding” value in the assay with human CD33 E321A was determined as 111 % WT binding; in the assay with human CD33 V282A, 108 % WT binding; in the assay with human CD33 M334A, 107 % WT binding; in the assay with human CD33 K288A, 100 % WT binding; with human CD33 A329S, 92.8 % WT binding; with human CD33 H285A, 103 % WT binding. Further, the “Mean % WT Binding” value was determined as 104 % WT binding with human CD33 T299A, 99.3 % WT binding in the assay with human CD33 H339A, 94 % WT binding with human CD33 A328S and 110 % WT binding in the assay with human CD33 T322A.

B2: Refmab #6 (antibody, human IgG1, V domains shown)
VH: B1 VH
VL: B1 VL
notes: tested in IgG format
In the case of B2, the “Mean % WT Binding” value with human CD33 W22R is 1.3 % WT binding; in the assay with human CD33 N20E, 108 % WT binding; with human CD33 P19D, 105 % WT binding; with human CD33 W22T, 2.6 % WT binding; with human CD33 D18R, 68.3 % WT binding; in the assay with human CD33 N20K, 91.8 % WT binding. Further, the “Mean % WT Binding” value in the assay with human CD33 W22E stood at 1.7 % WT binding; with human CD33 N20V it was 96.9 % WT binding; in the assay with human CD33 N20Y, 28 % WT binding; in the assay with human CD33 D18N, 32.2 % WT binding; with human CD33 N20W, 50.3 % WT binding; in the assay with human CD33 Q24N it was 95.4 % WT binding. Besides, the “Mean % WT Binding” value with human CD33 P19L is 103 % WT binding; with human CD33 N20T it was 106 % WT binding; in the assay with human CD33 P19W it was 75.5 % WT binding; with human CD33 Q24T it was 97.7 % WT binding; with human CD33 W22Q it was 7.6 % WT binding; in the assay with human CD33 W22L, 1.1 % WT binding. Besides, the “Mean % WT Binding” value in the assay with human CD33 W22Y worked out at 4.1 % WT binding.

B3: Refmab #3 (antibody, human IgG1, V domains shown)
VH: QVQLVQSGAEVKKPGSSVKVSCKASGYTFTDYNMHWVRQAPGQGLEWIGYIYPYNGGTGYNQKFKSKATITADESTNTAYMELSSLRSEDTAVYYCARGRPAMDYWGQGTLVTVSS
VL: DIQMTQSPSSLSASVGDRVTITCRASESVDNYGISFMNWFQQKPGKAPKLLIYAASNQGSGVPSRFSGSGSGTDFTLTISSLQPDDFATYYCQQSKEVPWTFGQGTKVEIK
Regarding B3, the “% WT binding” value in [1] is 0%.

B4: Refmab #4 (antibody, human IgG1, V domains shown)
VH: QVQLVQSGAEVKKPGESVKVSCKASGYTFTNYGMNWVKQAPGQGLEWMGWINTYTGEPTYADKFQGRVTMTTDTSTSTAYMEIRNLGGDDTAVYYCARWSWSDGYYVYFDYWGQGTSVTVSS
VL: DIVMTQSPDSLTVSLGERTTINCKSSQSVLDSSTNKNSLAWYQQKPGQPPKLLLSWASTRESGIPDRFSGSGSGTDFTLTIDSPQPEDSATYYCQQSAHFPITFGQGTRLEIK
As to B4, the “% WT binding” value in assay [1] is 109%.

B5: Refmab #5 (antibody, V domains shown)
VH: QVQLVQSGAEVKKPGASVKVSCKASGYTFTNYDINWVRQAPGQGLEWIGWIYPGDGSTKYNEKFKAKATLTADTSTSTAYMELRSLRSDDTAVYYCASGYEDAMDYWGQGTTVTVSS
VL: DIQMTQSPSSLSASVGDRVTINCKASQDINSYLSWFQQKPGKAPKTLIYRANRLVDGVPSRFSGSGSGQDYTLTISSLQPEDFATYYCLQYDEFPLTFGGGTKVEIK
notes: as for B1
For the molecule B5, the “Mean % WT Binding” value came to 88.1 % WT binding with human CD33 T331A; 103 % WT binding with human CD33 T284A; 100 % WT binding in the assay with human CD33 F279A; 87.7 % WT binding in the assay with human CD33 A293S; 77 % WT binding with human CD33 T302A; 84.5 % WT binding in the assay with human CD33 D298A. For the same molecule, the “Mean % WT Binding” value with human CD33 E321A is 96.2 % WT binding; with human CD33 V282A, 112 % WT binding; in the assay with human CD33 M334A, 99.4 % WT binding; with human CD33 K288A, 97.9 % WT binding; with human CD33 A329S, 124 % WT binding; with human CD33 H285A, 116 % WT binding. Also, the “Mean % WT Binding” value was determined as 91.1 % WT binding with human CD33 T299A, 82.7 % WT binding in the assay with human CD33 H339A, 105 % WT binding with human CD33 A328S and 100 % WT binding with human CD33 T322A.

B6: Refmab #5 (antibody, human IgG1, V domains shown)
VH: B5 VH
VL: B5 VL
notes: tested in IgG format
B6: the “Mean % WT Binding” value was 104 % WT binding with human CD33 W22R; 109 % WT binding with human CD33 N20E; 96.4 % WT binding with human CD33 P19D; 108 % WT binding with human CD33 W22T; 97.4 % WT binding with human CD33 D18R; 105 % WT binding in the assay with human CD33 N20K. Also, the “Mean % WT Binding” value with human CD33 W22E was found to be 111 % WT binding; in the assay with human CD33 N20V it was 108 % WT binding; with human CD33 N20Y it was 57.7 % WT binding; in the assay with human CD33 D18N it was 58.7 % WT binding; with human CD33 N20W it was 71.7 % WT binding; in the assay with human CD33 Q24N it was 110 % WT binding. Moreover, the “Mean % WT Binding” value in the assay with human CD33 P19L stood at 100 % WT binding; with human CD33 N20T, 107 % WT binding; with human CD33 P19W it was 85.9 % WT binding; in the assay with human CD33 Q24T it was 105 % WT binding; with human CD33 W22Q, 109 % WT binding; in the assay with human CD33 W22L it was 96 % WT binding. Also, the “Mean % WT Binding” value in the assay with human CD33 W22Y stood at 107 % WT binding.
